The record followed here is PMC7979924 (2021).

In assay [1] the target is YB-1-CSD (1–180 aa.) (Homo sapiens (Human), UniProt P67809). Put plainly: EMSA; in presence of ssDNA (M13, stem-loop or C20); tests mixing/cooperative co-association on nucleic acid, not direct binding.
In assay [2] the target is T1, Lin28-CSD (32–136 aa.) (Homo sapiens (Human), UniProt Q9H9Z2).
T1 chain: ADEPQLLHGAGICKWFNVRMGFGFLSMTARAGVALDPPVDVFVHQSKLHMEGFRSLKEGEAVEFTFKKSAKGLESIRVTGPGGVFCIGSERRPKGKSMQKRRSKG
The assay can be described thus: NMR 1H-15N HSQC (peak heights); in presence of 20-nt poly(C) ssDNA; tests co-association on nucleic acid, not direct protein-protein binding.

Chain of YB-1-CSD (1–180 aa.) (P67809 1-180): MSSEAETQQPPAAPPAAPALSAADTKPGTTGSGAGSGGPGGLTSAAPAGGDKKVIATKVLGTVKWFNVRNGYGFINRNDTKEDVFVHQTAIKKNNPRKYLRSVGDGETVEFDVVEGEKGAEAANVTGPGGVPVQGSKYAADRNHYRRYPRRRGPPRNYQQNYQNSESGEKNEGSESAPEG

B1: TDP43 (RRM 1–2, 101–277aa.) (protein)
chain: QKTSDLIVLGLPWKTTEQDLKEYFSTFGEVLMVQVKKDLKTGHSKGFGFVRFTEYETQVKVMSQRHMIDGRWCDCKLPNSKQSQDEPLRSRKVFVGRCTEDMTEDELREFFSQYGDVMDVFIPKPFRAFAFVTFADDQIAQSLCGEDLIIKGISVHISNAEPKHNSNRQLERSGRFG
On to B1, for which the binding result in assay [1] is “no binding”.

B2: FUS (RRM, 165–385aa.) (protein)
chain: SGGGGGGGGGGNYGQDQSSMSSGGGSGGGYGNQDQSGGGGSGGYGQQDRGGRGRGGSGGGGGGGGGGYNRSSGGYEPRGRGGGRGGRGGMGGSDRGGFNKFGGPRDQGSRHDSEQDNSDNNTIFVQGLGENVTIESVADYFKQIGIIKTNKKTGQPMINLYTDRETGKLKGEATVSFDDPPSAKAAIDWFDGKEFSGNPIKVSFATRRADFNRGGGNGRGG
For the molecule B2, the binding result in assay [1] was “no binding”.

B3: TDP-43 RRM2 (176–277aa.) (protein)
chain: KLPNSKQSQDEPLRSRKVFVGRCTEDMTEDELREFFSQYGDVMDVFIPKPFRAFAFVTFADDQIAQSLCGEDLIIKGISVHISNAEPKHNSNRQLERSGRFG
In the case of B3, the binding result in assay [2] was “no binding”.
